Results on three molecules are retold here after paper PMC2755582 (Journal of molecular biology, 2009).

The target of assay [1] is Uroplakin Ia (Mus musculus) (UniProt Q9D132). Conditions: cited from earlier work.
The next assay concerns the target T1, uroplakin Ia (mouse, UniProt Q9D132 1-257, high mannose glycan at its single glycosylation site).
T1 sequence (looked up): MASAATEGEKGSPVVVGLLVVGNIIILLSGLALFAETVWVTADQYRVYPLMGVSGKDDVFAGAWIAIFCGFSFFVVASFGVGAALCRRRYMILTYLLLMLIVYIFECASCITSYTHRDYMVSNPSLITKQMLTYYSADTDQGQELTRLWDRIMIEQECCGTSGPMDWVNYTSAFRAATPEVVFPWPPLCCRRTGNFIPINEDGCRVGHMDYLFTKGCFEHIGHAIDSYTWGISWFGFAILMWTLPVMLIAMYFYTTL
The assay can be described thus: cryo-EM structure.

The next assay has as its target T2, uroplakin IIIa (mouse, UniProt Q9JKX8 19-287).
T2 sequence (looked up): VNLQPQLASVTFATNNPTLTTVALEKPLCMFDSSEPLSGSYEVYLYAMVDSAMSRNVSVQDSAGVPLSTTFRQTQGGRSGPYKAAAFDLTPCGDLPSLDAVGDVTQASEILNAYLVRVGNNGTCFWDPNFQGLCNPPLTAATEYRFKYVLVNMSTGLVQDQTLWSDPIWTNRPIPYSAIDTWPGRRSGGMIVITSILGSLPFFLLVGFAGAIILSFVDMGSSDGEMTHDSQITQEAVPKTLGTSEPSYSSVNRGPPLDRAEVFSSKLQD
Kind of assay: cryo-EM structure.

Take FimH (from UniProt P08191): in assay [1], the Kd was 100 nM.

B1: uroplakin II (natural protein, mouse, UniProt P38575 85-184, looked up)
chain: ELVSVVDSGSGYTVTRLSAYQVTNLTPGTKYYISYRVQKGTSTESSPETPMSTLPRKNMESIGLGMARTGGMVVITVLLSVAMFLLVVGLIVALHWDARK
On to B1, for which the binding result with uroplakin Ia was “binds”.

B2: uroplakin Ib (natural protein, mouse, UniProt Q9Z2C6 1-260, looked up)
chain: MAKDDSTVRCFQGLLIFGHVIVGMCGIALTAECIFFVSDQHSLYPLLEATNNDDIFGAAWIGMFVGICLFCLSVLAIVGIMKSNRKILLAYFIMMFIVYGFEVASCITAATQRDFFTTNLFLKQMLMRYQNNSPPTNDDEWKNNGVTKTWDRLMLQDHCCGVNGPSDWQKYTSAFRVENNDADYPWPRQCCVMDKLKEPLNLDACKLGVPGYYHSQGCYELISGPMDRHAWGVAWFGFAILCWTFWVLLGTMFYWSRIEY
On to B2, for which, in the assay with uroplakin IIIa, the binding result is on record as “binds”.
